The target of assay [1] is full-length human Nav1.7 fused at its N-terminus to GFP, expressed in HEK293 cells (human) (UniProt Q15858). Description: cell-based or functional assay.
Assay [2] shares this target. Description: flow cytometry on Nav1.7-GFP-HEK293, antibody 3.3 nM preincubated with 3.3 uM EC 3-1 peptide as competitor. Background: A flow cytometer gives signals particle by particle.
Assay [3] has the same target. The assay can be described thus: flow cytometry; % stained hNav1.7-GFP-HEK293 minus parental HEK293.
Assay [4] shares this target. Description: flow cytometry on Nav1.7-GFP-HEK293, antibody 3.3 nM.
Assay [5] addresses N-term Biotin Nav1.7 (3-3) peptide, mouse (mouse). Description: ELISA on coated peptide.

The values below come from patent US20160024208A1.

Numbering of substitutions follows the chain as printed. Where only a bound is given, the exact number is not on record here.

B1: H4H441B (antibody, V domains shown)
VH: QVQLQQWGAGLLKPSETLSLTCAVYGGSFSGHYWTWIRQPPGKGLEWIGEINHRGNTNYNPSLKSRATISVDTSKNQFSLKLSSVTAADTAVYYCAREGSLAARLWFFDLWGRDTPVTVSS
VL: DIQMTQSPSSLSASVGDRGTVTCRASQNIRTYLNWYQQKPGKAPKLLIYAASSLQSGVPSRFSGSGSGTDFTLTISSLQPEDFATYYCQQSYGTPYTFGQGTKVEIKR
As for B1, the Current blocking (Average % inhibition), IonWorks Quattro, 223 nM antibody in assay [1] was determined as 81%.

B2: H4H448B (antibody, V domains shown)
VH: EVQLVQSGGGLVQPGRSLRLSCAASGFTFDDYAMHWVRQAPGKGLEWVSGISWNSGSIGYADSVKGRFTISRDNAKNSLYLQMNSLRAEDTALYYCAKDIEYYDILTGYYSYYIMDVWGQGTTVTVSS
VL: B1 VL with Q3R, V21I, R30N, T31S, Q38L, Y49F, G93S, T94S, Y96F
Take B2: the % Binding Nav1.7 + 1000x Peptide (Competition Binding) in assay [2] amounted to 5.8%. For the same molecule, the % Binding Nav1.7 in assay [3] came to 9.2%. In assay [4], this molecule had a % Binding Nav1.7 (Stable Line) of 9.2%.

B3: H4H382B (antibody, V domains shown)
VH: EVQLVQSGGGVVQPGRSLRLSCEASGFTFSSYGMHWVRQAPGKGLEWVAVISYDGSNKHYTDSVKGRFTISRDNSKNTLYLQMNSLRAEDTAVYFCAQSRGYSYGLGYWGQGTLVTVSS
VL: DIQMTQSPDSLAVSLGERATINCKSSQSVLSSSNNENYLVWYQQKPGQPPKLLIYWASTREPGVPDRFSGGGSGTDFTLTISSLQAEDVAVYYCQQYHSIPYTFGQGTKVEIKR
For the molecule B3, the Current blocking (Average % inhibition), IonWorks Quattro, 223 nM antibody in assay [1] is -6%. Further, in assay [3], the % Binding Nav1.7 amounted to 13%.

B4: H4H443B (antibody, V domains shown)
VH: B2 VH with E1Q, Q6E, A40V, S52N, Y80F
VL: DIQMTQSPSFLSASVGDRVTITCWASQGISSYLAWYQQKPGKAPKLLIYASSTLQSGVPSRFSGSGSGTEFTLTISSLQPEDFATYYCQQFNSYPPTFGQGTKVEIKR
Take B4: the % Binding Nav1.7 + 1000x Peptide (Competition Binding) in assay [2] is 5.1%. In assay [3], the % Binding Nav1.7 worked out at 10.1%. In assay [4], the % Binding Nav1.7 (Stable Line) is 10.1%.

B5: H4H471B (antibody, V domains shown)
VH: EVQLVESGGGLVKPGGSLRLSCAASGVTFSDYYMTWIRQAPGKGLEWVSYISTDGRTIYYADSVKGRFTISRDNAKNSLYLQMNNLRAEDTAVYYCARGVDSDDYEDFYSYYDMDVWGQGTTVTVSS
VL: DIQMTQSPSSLSASVGDRVTITCRASQGISNYLAWFQQKPGKAPKSLIYAASSLQGGVPSRFSGSGSGTDFTLTISSLQPEDFATYYCQQYNSYPLTFGGGTKVEIKR
In turn, B5 displayed an OD450 in assay [5] of less than 0.2 od.
